Experimental findings from the RNAGym collection of RNA variant scans (doi:10.7554/elife.80360) are described below.

B1: HDV Ribozyme (parent)
chain: GGCCGGCAUGGUCCCAGCCUCCUCGCUGGCGCCGGCUGGGCAACAUUCCGAGGGGACCGUCCCCUCGGUAAUGGCGAAUGGGACCCA

The variants in the data set derive from B1. In words: self-cleavage, relative activity (ratio to wild type); higher = more cleavage; co-transcriptional.
On to GGCCGGCAUGGUCCCAGCCCCCUCGCUGGCGCCGGCUGGGCAACAUUCCGAGGGGACCGUCCCCUCGGUAAUGGCGCAUGGGACCCA [U20C A77C], for which the self-cleavage is 0.0615. As to GGCCGGCAUGGUCCCAGCCUCCUCGCUGGCGCCGGCUGGGCAACAUUCCGACGGGACCCUCCCCUCGGUAAUGGCGAAUGGGACCCA [G52C G59C], the self-cleavage was 0.987.

For the variant GGCCGGCAUGGUCCCAGCCUCCUCGCUGGCGCCGGCUGGGCAACAUUCCGAGGGGACCGUCCCCUCGGUAAUGACGAGUGGGACCCA [G74A A78G], the self-cleavage turned out to be 0.111.

As to GGCCGGCAUGGUCCCAGCCUCCUCGCUGGCGCCGGCUGGGCAACAUUCCGAGGGAACCGUCCCCUCGUUAAUGGCGAAUGGGACCCA [G55A G68U], the self-cleavage worked out at 0.965. The figure for GGCCGGCAUGGUCCCAGCCUCCUCGCUGGCGCCGGCUGGGCAAUAUUCCGAGGGGACCGUCCCCUCGGUAAUGGCGAAUGGGGCCCA [C44U A83G] is 0.48; for GGCCGGCAUGGUCCCAGCCUCCUCGCUGGCGCCGGCUGGGCAACAUUCCGAGGGAACCGUCCCCUCUGUAAUGGCGAAUGGGACCCA [G55A G67U] it is 1.12.

With GGCCGGCAUGGUCCCAGCCUCCUCGCUGGCGCCGGCUGGGCAACAUUCCGAGGGGAGCGUCCCCUCGGUAAUGGCGUAUGGGACCCA [C57G A77U], the self-cleavage amounted to 0.923. In the case of GGCCGGCAUGGUCCCAGCCUCCUCGCUGGUGCCGGCUGGGCAACAUUCCGAGGGGACCGUCCCCACGGUAAUGGCGAAUGGGACCCA [C30U U65A] it was 0.689; in that of GGCCGGCGUGGUCCCAGCCUCCUCGCUGGCGCCGGCUGGGCAACAUUCCGAGGGGACCGUCCCCUCGGUAAUGGCGAUUGGGACCCA [A8G A78U], 0.266. The figure for GGCCGGCAUGGACCCAGCCUCCUCGCUGGCGCCGGCUGCGCAACAUUCCGAGGGGACCGUCCCCUCGGUAAUGGCGAAUGGGACCCA [U12A G39C] is 0.0594; for GGCCGGCAUGGUCCCAGCCUCCUCGCUGGCUCCGGCUGGGCAACAUUCCGAGGGUACCGUCCCCUCGGUAAUGGCGAAUGGGACCCA [G31U G55U] it is 0.324; for GGCCGGCAUGGUCCCAGCCUCCUCGAUGGCGCCGGCUGGGCAACAUUCCGAGGGGACCGUCCCCUCGGUAAUGGCGAAUGGGACCUA [C26A C86U] it is 0.735. With AGCCGGCAUGGUCCCAGCCUCCUCGCUGGCGCCGGCUGGGCAACAUUCCGAGGGGACCGUCCCCUCGGUAAUGGCGAAUGGGGCCCA [G1A A83G], the self-cleavage came to 0.219.

For GGCCGGCAUGGUCCCAGCCUCCUCGCUGGCGCCGGCUGGGCAACAUUCCGACGGGACCGUCCCCUCGGUAAUGGCGCAUGGGACCCA [G52C A77C], the self-cleavage was determined as 0.403. With GGCCGGCCUGGUCCCAGCCUCCUCGCUGGCGCCGGCUGGGCAACAUUCCGAGGGGAACGUCCCCUCGGUAAUGGCGAAUGGGACCCA [A8C C57A], the self-cleavage was 0.89.

In the case of GGCCGGCAUGGUCCCAGCCUCUUCGCUGGCGCCGGCUGGGCAACAUUCCGAGGGGACCGUCCCCUCGGUGAUGGCGAAUGGGACCCA [C22U A70G], the self-cleavage came to 0.577. Take GGCCGGCAUGGUCCCAGCCUCCUCGCUGGCGCCGGCUGGCCAACAUUCCGAGAGGACCGUCCCCUCGGUAAUGGCGAAUGGGACCCA [G40C G53A]: the self-cleavage came to 0.332. The figure for GGCCGGCAUGGUCCCAGCCUCGUCUCUGGCGCCGGCUGGGCAACAUUCCGAGGGGACCGUCCCCUCGGUAAUGGCGAAUGGGACCCA [C22G G25U] is 0.102.

Regarding GGCUGGCAUGGUCCCAGCCUCCUCGCUGGCGCCGGCUGGGCAACAUUCCGAGAGGACCGUCCCCUCGGUAAUGGCGAAUGGGACCCA [C4U G53A], the self-cleavage was found to be 0.665. For GGCCUGCAUGGUCCCAGCCUCCUCGCUGGCGCCGUCUGGGCAACAUUCCGAGGGGACCGUCCCCUCGGUAAUGGCGAAUGGGACCCA [G5U G35U], the self-cleavage is 0.108. The figure for GGCCGGCAUGGCCCCAGCCUCCUCGCUGGCGCCGGCUGGGCAGCAUUCCGAGGGGACCGUCCCCUCGGUAAUGGCGAAUGGGACCCA [U12C A43G] is 0.0437; for GGCCCGCAUGGUCCCAGCCUCCUCACUGGCGCCGGCUGGGCAACAUUCCGAGGGGACCGUCCCCUCGGUAAUGGCGAAUGGGACCCA [G5C G25A] it is 0.0639; for GGCCGGCAUGGUCCCAGCCUCCUCGCUGGCGCCGGCUGGGCAACAUUUCGAGGGGACCGUCCCCUCCGUAAUGGCGAAUGGGACCCA [C48U G67C] it is 1.01. In the case of GGCCGGCAUGGUCCCAGCCUCCUCGCUGGCGCCGGCUGGGCAACAUUCCCUGGGGACCGUCCCCUCGGUAAUGGCGAAUGGGACCCA [G50C A51U] it was 0.755; in that of GGCCGGCAUGGUCCCAGCCUCCUCGCUGGCGCCGGCUAGGCAACAUUCCGAGGGGACCGUCCCCUCGGUAAAGGCGAAUGGGACCCA [G38A U72A], 0.155; in that of GGCCGGCAUGGUCCCAGCCUCCUCGCUGGCGCCGGCUGGGCACCAUUCCGAGGGGACCGUCCCCUGGGUAAUGGCGAAUGGGACCCA [A43C C66G], 0.364. In the case of GGCCGGCAUGGUCCCAGCCUCCUCGCUGGCGCCGGCUGGGCAACAUUCCGAGUGGACCGUCCCCUCGGUAAUGGCGAGUGGGACCCA [G53U A78G], the self-cleavage is 0.739.

Turning to GGCCGGCAUGGUCCCAGCCUCCUCGCUGGAGCCGGCUGGGCAACAUUCCGAGGGGACCGUCCCCUCGGUAAUGUCGAAUGGGACCCA [C30A G74U], the self-cleavage came out at 0.223. In the case of GGCCGGCAUGGUCCCAGCCUGCUCGCUGGCGCCGGCUGGGCAACAUUCCGAGGGGACCGUCCCCUCGCUAAUGGCGAAUGGGACCCA [C21G G68C] it was 0.0554. The figure for GGCCGGCAUGGUCCCAGCCUCCUCCCUGGCGCCUGCUGGGCAACAUUCCGAGGGGACCGUCCCCUCGGUAAUGGCGAAUGGGACCCA [G25C G34U] is 0; for GGCCGGCAUGGUCCCAGCCUCCUCGCUGGCGCCGGCUGGGCAACAUUCCGAGAGGACCGUCCCCUCGGUGAUGGCGAAUGGGACCCA [G53A A70G] it is 1.07; for GGCCGGCAUGGUCCCAGCCUCCUCGCUGUCGACGGCUGGGCAACAUUCCGAGGGGACCGUCCCCUCGGUAAUGGCGAAUGGGACCCA [G29U C32A] it is 0.135.
